“Also recorded” adds a separate entry of the source.
Assays:
Type in all cases: cell-based, human
[1] = test system: CXCR3 expression on CD4+ T cells; test: CXCR3 expression on CD4+ T cells of activated PBMCs (flow cytometry); conditions: 3 individual donors
Method: Materials and methods: PBMCs from healthy adult donors were isolated from whole blood using Ficoll-Paque density gradient centrifugation. PBMCs were cultured in a humidified 37° C. incubator for 24 hours in RPMI-1640 culture medium supplemented with 5% human serum, and standard antibiotics, 2-ME and HEPES. PBMCs were then seeded at 1×10^6 cells/well with 1 mL fresh culture medium/well in a 24-well plate and stimulated by mixing cells with human T cell TransAct (1:200). Antibodies indicated in the Results were then added and mixed well. After 2 days of culture, PBMCs were collected, washed with PBS three times, re-suspended in culture medium and re-cultured with indicated antibodies for an additional 2 days.
PBMCs were treated as required (see above) and then harvested for flow cytometry antibody staining, using anti-human CD4, anti-human CD8, anti-human CD56 and anti-human CXCR3 antibodies for 30 minutes on ice in the dark. PBMCs were then washed twice with FACS buffer and the expression of CXCR3 determined by flow cytometry using an Attune NxT flow cytometry. Flow cytometry data analysis was performed using FlowJo software.

[2] = test system: primary melanocytes; test: Melanocyte cell viability after IFN-γ, chemokines, cell death inhibitors or 2A6Q, Day 2 and Day 7; conditions: melanocytes with IFN-γ, up to seven days; listed as 2A6Q
Method: To determine cell viability of melanocyte after treatment with IFN-γ, CXCL9, CXCL10, CXCL11, at Day 2, and Day 7, the cells were collected and seeded into 96-well plates. After adhesion, cells were treated with IFN-γ (0, 10, 100 ng/ml) with different compounds: 2A6Q, CXCL9, CXCL10, CXCL11, ROS scavenger (NAC), necroptosis inhibitor (NEC-1), pyroptosis inhibitor (VX-765), apoptosis inhibitor (QVD-OPH), Ferroptosis inhibitor (Liproxstaitin-1, Ferrostatin-1, DFO). Cell viability was measured using a CellTiter-Glo luminescent cell viability assay kit (Promega) according to the manufacturer's protocol. The […] of the final reaction product was measured using a luminometer (SpectraMax® iD3 Multi-Mode Microplate Reader (Molecular Devices). After calculation, the viability of control cells was 100%, and all others were normalized to control and shown as relative cell viability (%). Treatment dosage N-acetylcysteine (NAC; 0.05 mM, 1 mM), Necrostatin-1 (NEC-1; 20 μM, 2 μM), Belnacasan (VX-765; 50 μg/mL, 5 μg/mL), Quinoline-Val Asp-Difluorophenoxymethylketone (QVD-OPH; 10 μM, 2 μM), Liproxstaitin-1 (10 μM, 5 μM, 1 μM, 0.05 μM), Ferrostatin-1 (5 μM, 1 μM), Deferoxamine (DFO; 10 μM, […], 1 μM, 0.05 μM), 2A6Q (10 μg/mL), CXCL9 (10 ng/mL, 10 pg/mL), CXCL10 (10 ng/ml, 10 pg/mL), CXCL11(10 ng/mL, 10 pg/mL).

[3] = test system: SLC7A11; test: Ferroptosis regulators in melanocytes (RNA sequencing, SLC7A11 immunoblot); conditions: melanocytes
From the text: (§1) Total RNA was extracted from melanocytes with an RNA purification kit (Zymo Research, r2050). After RNA samples were extracted from primary melanocytes and melanocytes cell line (Gibco), the samples were sent to Biotools Co., Ltd Taiwan for RNA sequence. The RNA quality was examined by Agilent Technologies 2100 Bio-analyzer with an RNA integrity value greater than 8. After rRNA depletion (Epicenter), RNA fragmentation, and library preparation (Illumina), the constructed libraries were then performed 150 bp paired-end sequencing by an Illumina NovaSeq6000 sequencer. The results from each sample were aligned to the GRCh38 genome by the HISAT2 software and analyzed by Biotools Co., Ltd Taiwan.
(§2) Cells were washed in PBS and lysed in RIPA lysis buffer with proteases inhibitor and Phenylmethanesulfonyl fluoride (PMSF; Sigma-Aldrich, P7626). The total cell lysates were sonicated and centrifuged at 4° C., 13000 rpm for 30 min. Protein concentration was quantified using the Bradford assay. The total cell lysates were separated by SDS-PAGE and transferred to a PVDF membrane. The membrane was blocked with 5% BSA or 5% milk in TBST for 1 hour at room temperature and incubated with primary antibodies overnight at 4° C. and HRP-conjugated secondary antibodies for hour at room temperature. The protein was visualized by Thermo ibright1500. Primary antibodies were follows: anti-human SLC7A11 (CST, 12691), anti-human SLC3A2 (CST, 13180), anti-IRF1 (CST, 8478), anti-MITF (CST, 12590), and anti-GAPDH (Abcam, ab8245).

[4] = test system: MITF; test: Melanin regulators in melanocytes (RNA sequencing, MITF immunoblot); conditions: melanocytes
From the text: as §1, §2

B1: EI-001: human monoclonal anti-IFN-γ neutralizing antibody; VH SEQ ID NO: 165, VL SEQ ID NO: 113; N76Q removes VH glycosylation site (antibody, listed as Homo sapiens, V domains shown)
VH: EVQLVESGGGLVKPGDSLTVSCVASGFTFSNYFIHWVRQAPGKGLEWVATISGRTKYMFYSDSLRGRFTVSRDNAQNSVYLHMSSLRGEDTALYYCVRGYDHSDSNSAADLLHWGRGTLVTVSS
VL: NFMLTQPLSVSGYPGKTIVISCVRSSGSVASHYVQWFQQRPGSAPAMVIYEDSHRPSGIPDRFSGSVDASSNSASLTISGLKTEDEADYFCQSYYGNNQVLFGGGTKLTVL
modifications: Recombinant variant antibody sequence
notes: human monoclonal anti-IFN-γ neutralizing antibody; N76Q removes VH glycosylation site
IC50 of EI-001 to inhibit CXCR3 expression on CD4+ T cells [1]: 0.279 to 1.313 µg/mL
rescue of IFN-γ induced melanocyte cell death (cell viability) [2]: more profound than all other cell death inhibitors; also recorded: rescue cell viability of melanocyte in a time-dependent manner
reversal of ferroptosis as demonstrated by SLC7A11 [3]: reverses ferroptosis
reversal of IFN-γ induced downregulation of MITF [4]: reverses

From patent US20250320288A1, “METHOD OF TREATING VITILIGO WITH INTERFERON-GAMMA ANTIBODY” (Elixiron Immunotherapeutics (Hong Kong), priority 2022, published 2025)
